Laboratory results: the nanobody polyreactivity screen of Harvey et al. (2022)

Assay: yeast display, Sf9 membrane polyspecificity reagent, FACS + sequencing; frameworks hold sequencing errors
Outline: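 Synthetic nanobody libraries on Saccharomyces cerevisiae BJ5465 were galactose-induced for 36–48 hours, stained 1 hour at 4 °C with 10% biotinylated, detergent-solubilized Sf9 membrane reagent and enriched on streptavidin microbeads. FACS then separated cells into low and high (top ~1%) gates by anti-HA (expression) and streptavidin (reagent binding) fluorescence. Genes were colony-PCR amplified, MiSeq 2 × 250 sequenced and CDR-length filtered. A clone's polyreactivity label is that of its gate of origin.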

| Sequence | polyreactivity (PSR sort gate) |
| --- | --- |
| QDQLVESGGGLVQAGGSLRLSCAASGIIFYGYAMGWYRQAPGKERQLVAGISSGGSTYYADSVKGRFTISRDNAKNTVYLQMNSLNPEDTAVYYCNAEGGYSYESTDHYRYDYWGLGTQVTVSS | low polyreactivity |
| QVQLVESGGGLVQAAGSLRLSCAASGSIFGVNVMGWYRQAPGKERELVAAITTSGGSTYYADSVKGRFTISRDNAKNTVYLQMNSLKPEDTAVYYCAAEVYYPIFLTFYYRGQGTQVTVSS | high polyreactivity |
| QDQLVESGGGLVQAGGSLRLSCAASGLIFLYAMGWYRQAPGKERELVAAISNGGSTYYADSVKGRFTISRDNAKNTVYLQMNSLKPEDTAVYYCAAKGVRRRYRPDMYYWGQGTQVTVSS | high polyreactivity |
| QVQLVESGGGLVQAGGSLRLSCAASGYTFKAYAMGWYRQAPGKERELVAAISWSGARTYYADSVKGRFTISRDNAKNTVYLQMNSLKPEDTAVYYCAASNAVYAGRSYRDEFWGQGTQVTVSS | high polyreactivity |
| QVQLVESGGGLVQAGGSLRLSCAASGSIFVPNTMGWYRQAPGKERELVAVISRSGGSTNYADSVKGRFTISRDNAKNTVYLQMNSLKPEDTAVYYCNADDGYSVWGYDYWGQGTQVTVSS | low polyreactivity |
| QVQLVESGGGLVQAGCSLRLSCAASGLIFRSYAMGWYRQAPGKERELFARISIRGGSTYYADSVKGRFTISRDNAKNTVYLQMNSLKPEDTAVYYCAARPKNNWARTKYGIRYNYWGQGTQVTVSS | high polyreactivity |
| QVQLQESGGGLVQAVGSLRLSCAASGYISSWYPMGWYRQAPGKEREFVATIAPGATTYYADSVKGRFTISRDYAKKTVYLQMNSLKPEDTAVYYCAAGPEKNDFYSYWGQGTQVTVSS | low polyreactivity |
| QVQLVESGGGLVQAGGSLRLSCAASGNIFWLNAMGWYRQAPGKEREFVADITWSTGSTYYADSVKGRFTISRDNAKNTVYLQMNSLKPEDTAVYYCAADDGYFNYLILRFKYLYDYWGQGTQVTVSS | low polyreactivity |
| QVQLVESAGGLVQAGGSLRLSCDASGRIFTIYAMGWYSQAPGKERELVAAIRSSGDRTYYADSVKGRFTISRDNAKNTVYLQMNSQKPEDTAVYYCAARTRGGYYWGQGTQVTVSS | high polyreactivity |
| QVQLVESGGGLVQAGGSLRLSCAASGRIFKGYAMGWYRQAPGKERELVAAITWRGGTTYYADSVKGRFTISRDNAKNTVYLQMNSLKPEDTAVYYCAVSGKTAHSPQRYYYWGQGTQVTVSS | high polyreactivity |
| QVQLVESGGGLVQAGGSLRLSCAASGSIFSLNAMGWYRPAPGKERELVAVINRSGTRTYYADSVKGRFTISRDNAKNTVYLQMNSLKPEDTAVYYCNAQPSSGSDAQNEYWGQGTQVTVSS | high polyreactivity |
| QVQLVESGGGLVQAGGSLRLSCAASGRTFQRYAMGWYRQAPGKERELVAAITSSGGTTYYADSVKGRFTISRDNAKNTVYLQMYSMKPEDTAVYYCAARRITSRYDYWGQGTQVTVSS | high polyreactivity |
| QGQIVESGGGLGQAGGSLRLSCAASGSIFWANAMGWYSQSPWKERELVAAISSSGGRTYYADSVKGRFTISRDNAKNTVYLQMNSLKPEDTAVHYCNKLRLPYYEQGDYWGQGTQVTVSS | high polyreactivity |
| QVQLVESGGGLVQAGVSLRLSCAASGRTFFPNAMGWYRQAPGKERELVAAITHSGGTTYYADSVKGRFTISRDNAKNTVYLQMNSLKPEDTAVYYCARGQPRYYNSAYGYWGLGTQVTVSS | high polyreactivity |
| QVQLVESGGGLVQAGGSLRLSCAASGRTFWTYTMGWYRQAPGKEREFVAAITFGDGSTSYADSVKGRFTISRDNAKNTVYFQMNSLKPEDTAVYYCAKRWRRRFVDVWSLYDYWGQGTQVTVSS | low polyreactivity |
| QVQLVESAGGLVQAGGSLRLSCAASGFTFREYAMGWYRQAPGKERELVAVITSGDNTYYADSVKGRFTISRDNAKNTVYLQMNSLKPEDTAVYYCAKDYNRYYWPWVIRGYDYWGQGTQVTVSS | low polyreactivity |
| QVQLQESGGSLVQAGGSLRLSCAASGSISYPRTMGWYRQAPGKEREFVAGIGVGGTTYYADSVKGRFTISRDNAKITVYLQMNSLKPEDTAVYYCARRRSGPSVLYYYWGQGTQVTVSS | low polyreactivity |
| QVQLVESGGGLVQAGGSLRLSCAASGFTFYHYAMGWYRQAPGKEREFVAAISASGGSTYYADSVKGRFTISRDNAKNTVYLQMNSLKPEDTAVYYCNARYYYFSVRYKYDFNYWGQVTQVTVSS | high polyreactivity |
| QVQLVESGGGLVQAGGSLRLSCAASGSTFYPTYAMGWYRQAPGKERELVATITGSGGSTYYADSVKGRFTSSRDNAKNTVYLQMNSLKPEDTAVYYCAADRWYSRYTRYGYWGQGTQVTVSS | low polyreactivity |
| QVQLVESGGGLVQAGGSLRFSCAASGYIFSLNGRGWYRQAPGKERELVAAISSSGGRTYYADSVKGRFTISRDNAKNTVYLQMNSLKPEDTAVYYCAAEVYLSTYYQDMNYWGQGTQVTVSS | high polyreactivity |
| QVQLVESGGGLVQAGGSLRLSCAASGRTFKPYGMGWYRQAPGKERELVAAISSRGDITYYADSVKGRFTISRDNAKNTVYLQMNSLKPEDTAVYYCNADLYRKRAWVRRDGSWGQGTQVTVSS | low polyreactivity |
| QVQLVESGGGLFQEGGSLRLSCAPCGLIFFSYAMGWYRQAPGTERELVAAISRLGGRTYYADSVKGRFTISRDNAKNTVYLQMNSLKPEDTAVYYCATRVWTPIFGYEYWGQGTQVTVSS | low polyreactivity |

| Sequence | polyreactivity (PSR sort gate) |
| --- | --- |
| QVQLVESGGGLVQAGGSLRLSCAASGRIFAYYVMGWYRQAPGKERELVASISSGGGTYYADSVKGRFTISRDNAKNTVYLQMNSLKPEDTAVYYCAARWRRYVYPDGHLFWYDYWGQGTQVTVSS | high polyreactivity |
| QVQLEESGGGLLQAGGSLRLTCAASGFTFYYYAMGWYRLATGKERYLVAAISGGGGSTYYADSVKGRFTISRDNAKNTVYLPMNSMKPEDTAVYYCAAVGSWRYNYDYDYWGQGSQVTVSS | high polyreactivity |
| QVQLVESGGGLVQAGGSLRLSCAASGSIFLYNAMGWYRQAPGKESEFDAAISWSGVSTYYADSVKGRFTISRDNAKNTVYLHMNSLKPEDTAVYYCNAVYARVPIYDYWGQGTQVTVSS | low polyreactivity |
| QVQLVESGGRLVQAGGSLRLSCASSGSTFVYYAMGWYRPAPGKERELVAVISDDGGTYYADSVKGRFTISRDNAKNTVYLQMNSLKPEDTAVYYCAIDYYGGAYYWYNDRSGDYWGQGTQVTVSS | low polyreactivity |
| QVQLVESGGGLVQAGGSLRLSCAASGSTFSDNVMGWYRQAPGKERELVAGITRSGGRTYYADSVKGRFTISRDNAKNTVDLQMNSLKPEDTEVYYCAARRSGSKSGLFDYWGQGTQVTVSS | low polyreactivity |
| QVQLVESGGGLVHAGGSLRLSCAASGRIFRIYAMGWYRQAPGKERELVAAISRGGRTNYADSVKGRFTISRDNAKNTVYLQMNSLKPEDTAVYYCNATSNWGPTKVRFNYWGQGTQVTVSS | high polyreactivity |
| QVQLVQTGGGLVQAGGSLRLSCAASGRIFYRYDMGCYRQAPGKERSLVAAIRYSGGRTYYADSVKGRFTISRDNAKNTVYLQMNSLKPEDNAVYYCADDEFFWSSEEDYWGQVTQVTVSS | low polyreactivity |
| QVQLVESGGGLVQAGGSLRLRCAASGRTFGRYAMGWYRQAPGKERELVAAISTSGGSTFYADSVKGRITISRDNAKNTVYLLMNSLKPEDTAVYYCAADYRRFWGRYGYWGQGTQVTVSS | high polyreactivity |
| QVQLVESGGGLVQAGGSLRLSCAASGSIFVYNAMGWYRQAPGKERELVAGITFIGGSTYYADPVKGRFTISRDNAKNTVYLQMNSLKPEDTAVYYCNADVAPGIFYGYDSWGQGTQVTVSS | low polyreactivity |
| QVQLVESGGGLVQAGGRLRLSCAASGSTIPRNAMGWYRHAPGKERELVAAITSGGSTNYADSVKGRFTISRDNAKNTVYLQMNSLKPEDTAVYYCAADEQVNTQYVVWGDYWGQGTQVTVSS | low polyreactivity |
| QVQLVESGGGLVQAGGSLRLSCAASGITFQSNAMGWYRQAPGKERELVAGISGSGTSTYYADSVKGRFTISRDNAKNTVYLQMNSLKPEDTAVYYCAAAQSKYSFYWGDYYYWGQGTQVTVSS | high polyreactivity |
| QVQLVESGGGLVQAGGSLRLSCAASGRISGYNMGWSRHAPGKERELVAAISNGGSTNYADSVKGRFTISRANAKNTVYLQMNSLKPEDTAVYYCAKLGPRSYSAYRYDYWGQGTQVTVSS | high polyreactivity |
| QVQLVESGGGLVQAGGSLRLSCAASGFTFAYYAMGWYRPAPGKERELVAAITSGGRTNYADSVKGRFTISRDNAKNTVYLQMNSMKPEDTAVYYFAKGYRRVYGPLYYWGQGTQVTVSS | low polyreactivity |
| QVQLVESGGGLVQAGGSLRLSCAASGRIFVTYAMGWYRQAPGKERELVAVISWSGGSTYYADSVKGRITISRDNAKNTVYLQINSLKPEDTAVYYCARGLRKVRFDYWGQGTQVTVSS | low polyreactivity |
| QVQLVESGGCLVQSGGSLRLSCAASGSTFRGYAMGWYRQAPGKEREFVAAISKGGASTYYADSVKGRFTISRDNAMNTVYLQMNSLKPEDTAVYYCAKGAYRRAYGTYYYWGQGTQVTVSS | high polyreactivity |
| QVQLVESGGGLVHAGGSLRLSCAASGSISTRNAMGWYRQAPGKDRELVASITSGGSTYYADSVKGRFTISRDNAKNTVYLQMNSLKPEDTAVYYCAARRRRPWGYGYGYWGQGTQVTVSS | high polyreactivity |
| QVQLVESGGGLVQAGGSLRLSCAASGTTFAVYTMGWYRQAPGKERELSTSYADSVKGRFTISRDNAKNTVYLQMNILKQEDTAVYYCNRDFYEFDSNSYRFDYWGQGTQVTVSS | low polyreactivity |
| QVQLVESGGGLVQAGGSLRLSCAASGRTFYIYAMGWYRQAPGKERELVARITTGGRTNYADSVKGRFTISRDNAKNTVYLQMNSLKPEDTAVYYCATQYRGRQRKYDYWGQGTQVTVSS | high polyreactivity |
| QVQLVESGGGLVQAGGSLRLSCAASGFIFNRYAMGWYRQAPGKERELVAGITSSGGSTYYADSVKGRFTISRDNAKNTVYLQMNSLKPEDTAVYYCNADSWLYRFFGYDYWGQGTQVTVSS | low polyreactivity |
| QVQLVESGGGLVQAGGSLRLSCAASGSTSDVYAMGWYRQAPGKEREFVAAIRFSGGSTYYADSVKGRFTISRDNAKNTVYLQMNSLKPEDTAVYYCAKRWGIWPRGYYWGQGTQVTVSS | low polyreactivity |
| QVQLVESGGGLVQAGGSLRLSCAASGRIFLRNAMGWYRQAPGKERELVATITSRGGSTYYADSVKGRFTISRDNAKNTVYLQMNSLKQEDTAVYYCAADPRRYRGFGYVYGGFYYWGQGTQVTVSS | low polyreactivity |
